System: T1, Cc1cc(=O)oc2cc(NC(=O)[C@H](CCCNC(=N)N)NC(=O)[C@H](Cc3ccccc3)NC(=O)OCc3ccccc3)ccc12
T1 construct: substrate Z-FR-AMC
Assay: Km of PK for its fluorogenic substrate (used for ka correction, eq 2)
Format: biochemical, human
Conditions: other: PK, substrate Z-FR-AMC, kinetics in 50 mM Tris pH 7.5, 150 mM NaCl, 0.05% Triton X-100, 0.01% BSA, 25° C.
Source text: hK2 and hK3 (PSA) were purified from human semen as previously described (Frenette G, Gervais Y, Tremblay R R, Dube J Y. 1998 “Contamination of purified prostate-specific antigen preparations by kallikrein hK2” J Urol 159, 1375-8), anti-hK2 and anti-PSA monoclonal antibodies were a gift from Professor R R Tremblay, Laval University, Canada. Human chymotrypsin (Chtr), urokinase plasminogen activator (uPA), human kallikrein hK1, human plasma kallikrein (PK), human neutrophil elastase (HNE) and commercial ACT (human plasma α1-antichymotrypsin) were purchased from Calbiochem. […]
The association rate constants for interactions of hK2, chymotrypsin, PK and HNE with different rACTs were determined under pseudo-first order conditions using the progress curve method (Morrison J F, Walsh C T. 1988 “The behavior and significance of slow-binding enzyme inhibitors” Adv. Enzymol. Relat. Areas Mol. Biol 61, 201-301). […] Each reaction was made in reaction buffer (50 mM Tris pH 7.5, 150 mM NaCl, 0.05% Triton X-100, 0.01% BSA) at 25° C. for 45 min and the rate of product formation was measured using a FLx800 fluorescence 96-well microplate reader (Biotek, USA). […]
For each inhibitor, a kobs was calculated, for four different concentrations of inhibitors, by non linear regression of the data using equation 1. […]

Chain of human plasma kallikrein (PK) (Homo sapiens) (chain, as listed by the source): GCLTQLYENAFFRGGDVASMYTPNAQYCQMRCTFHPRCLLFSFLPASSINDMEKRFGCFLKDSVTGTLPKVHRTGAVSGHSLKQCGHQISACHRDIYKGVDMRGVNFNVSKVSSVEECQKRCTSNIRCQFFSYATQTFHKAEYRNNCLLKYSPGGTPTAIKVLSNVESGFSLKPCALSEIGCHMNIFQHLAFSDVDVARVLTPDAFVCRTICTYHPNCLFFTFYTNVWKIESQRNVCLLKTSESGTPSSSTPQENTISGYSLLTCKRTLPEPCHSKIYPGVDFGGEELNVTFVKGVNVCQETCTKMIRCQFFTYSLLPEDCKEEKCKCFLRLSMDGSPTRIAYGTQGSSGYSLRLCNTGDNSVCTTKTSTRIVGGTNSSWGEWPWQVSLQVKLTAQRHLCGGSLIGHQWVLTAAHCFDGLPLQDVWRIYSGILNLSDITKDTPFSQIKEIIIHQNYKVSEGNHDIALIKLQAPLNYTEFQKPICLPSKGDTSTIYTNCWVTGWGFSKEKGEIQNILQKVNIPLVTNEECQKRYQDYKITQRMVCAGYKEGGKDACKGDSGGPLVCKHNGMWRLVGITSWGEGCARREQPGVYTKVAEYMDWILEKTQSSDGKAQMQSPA

Question: How did the Km turn out when “human plasma kallikrein (PK) (Homo sapiens)” was run?
Answer: 170 µM

Source: US8975370B2, “Inhibitor proteins of a protease and use thereof” (Universite de Lausanne, priority 2003, dated 2015)
